The record followed here is the RNAGym collection of RNA variant scans (doi:10.7554/elife.80360).

First the molecules themselves.
B1: HDV Ribozyme (parent)
chain: GGCCGGCAUGGUCCCAGCCUCCUCGCUGGCGCCGGCUGGGCAACAUUCCGAGGGGACCGUCCCCUCGGUAAUGGCGAAUGGGACCCA

This series covers variants of B1. Put plainly: self-cleavage, relative activity (ratio to wild type); higher = more cleavage; co-transcriptional.
For C14A C36A, the self-cleavage is 0.
Take C75G G82U: the self-cleavage worked out at 0.215.
With G52A G53U, the self-cleavage was determined as 0.773.
For the variant G38U C61G, the self-cleavage amounted to 0.086.
For G1C G28U, the self-cleavage worked out at 0.107.
The figure for A51G G76C is 0.831; for C75U C86G it is 0.145.
In the case of G2C C21G it was 0.0396; in that of G1C G31A, 0.0302; in that of G28C G39U, 0.125.
The figure for C41U G82U is 0.261; for U79A A83C it is 0.151.
On to U12C G35C, for which the self-cleavage is 0.0923.
As to C26U C41A, the self-cleavage was 1.15.
In the case of G68A C85G it was 0.774; in that of C62A U79G, 0.862; in that of G17A G81A, 0.151.
C49A A56G: the self-cleavage came out at 1.11.
For the variant G31U C57A, the self-cleavage came out at 0.464.
For the variant C63U G76U, the self-cleavage turned out to be 1.15.
For G11C G53A, the self-cleavage was found to be 0.344.
A42C C63U: the self-cleavage is 0.19.
The figure for C32A G52C is 0.0831; for U46C G80A it is 0.185.
On to U37A A83U, for which the self-cleavage came to 0.104.
For the variant C19U A43U, the self-cleavage was 0.104.
U12A G52A: the self-cleavage turned out to be 0.364.
With U47G A51G, the self-cleavage turned out to be 0.906.
In the case of G55U G82A it was 0.467; in that of C21A U47G, 0.0504; in that of C19G C44A, 0.
Regarding C33U G55C, the self-cleavage stood at 0.831.
In the case of C4G G53A it was 0.277; in that of C18G C32G, 0.107.
For the variant C4A U46A, the self-cleavage amounted to 0.151.
Regarding U46C C48A, the self-cleavage was found to be 0.89.
G29A G31C: the self-cleavage was 0.154.
Regarding G2U C30A, the self-cleavage amounted to 0.0396.
The figure for C32A G74C is 0.108; for G74U A83U it is 0.259.
Take G25A G67C: the self-cleavage is 0.277.
Regarding A43C U46C, the self-cleavage turned out to be 0.435.
On to C49U U79A, for which the self-cleavage is 0.811.
In the case of G25U G59U it was 0.0511; in that of C32A, 0.21.
The figure for G25C U72G is 0.0639.
In the case of C21G C85A, the self-cleavage came to 0.0504.
Regarding C19A A83U, the self-cleavage was determined as 0.138.
Regarding G2C G25C, the self-cleavage worked out at 0.0346.
On to A42U A56U, for which the self-cleavage turned out to be 0.577.
Turning to C30G A45C, the self-cleavage is 0.0997.
As for C33A G53C, the self-cleavage was 0.332.
The figure for U9C U37A is 0.289.
The figure for U12A A42C is 0.147.
Turning to C44G G53A, the self-cleavage was 0.665.
G10A C26G: the self-cleavage came to 1.11.
Consider C41U A45U, for which the self-cleavage is 0.884.
In the case of C19U U72A it was 0.0504; in that of C63U G73U, 0.409.
Turning to G5C C62U, the self-cleavage amounted to 0.222.
For C64U U79G, the self-cleavage turned out to be 0.847.
G53U A83C: the self-cleavage was found to be 0.6.
In the case of U69C C84U it was 0.852; in that of G38U G39U, 0.0573.
Consider G52U C62A, for which the self-cleavage stood at 0.822.
In the case of U9G C41U, the self-cleavage is 0.997.
The figure for G25A A51G is 0.269.
For C3G A43G, the self-cleavage stood at 0.125.
Regarding G5A C19G, the self-cleavage amounted to 0.0898.
Turning to G25A A77C, the self-cleavage is 0.0978.
For the variant U23A A70U, the self-cleavage was found to be 0.962.
Consider C57A C85U, for which the self-cleavage came out at 1.05.
U23G A45G: the self-cleavage came out at 0.962.
In the case of A42U A87C it was 0.533; in that of U23A C86A, 1.21.
As for A71U A87U, the self-cleavage came out at 0.897.
In the case of A16U G74U it was 0.394; in that of G53A C64G, 0.769; in that of G11A C49A, 0.363.
In the case of A51C C86A, the self-cleavage came out at 0.872.
On to C58G C86G, for which the self-cleavage was determined as 0.969.
Turning to C24U A83U, the self-cleavage amounted to 0.198.
Regarding G11A G50C, the self-cleavage was determined as 0.439.
U65A C85A: the self-cleavage is 0.858.
With A51G G59U, the self-cleavage came to 1.1.
For the variant C26G G38A, the self-cleavage is 0.0978.
On to A56C C86G, for which the self-cleavage was 0.804.
In the case of C58U U60A it was 0.845; in that of C30G A56C, 0.0415; in that of G2U G68C, 0.0339.
For the variant G10C U60A, the self-cleavage was 0.932.
On to G50U A70U, for which the self-cleavage is 0.946.
In the case of U47A C63U it was 1; in that of C63A G73A, 0.681; in that of G6A A87U, 0.602.
In the case of C4A G11A it was 0.0183; in that of U12C A83G, 0.85; in that of U79G A83C, 0.204.
On to C61G A71U, for which the self-cleavage is 0.997.
Turning to A51C G53A, the self-cleavage is 0.491.
For the variant C26U C85U, the self-cleavage was 0.935.
In the case of G10C C58A it was 0.886.
With C22A C63G, the self-cleavage was 0.369.
In the case of G11A C61G it was 0.332; in that of G2C C18U, 0.0615; in that of U37G A56G, 0.0665.
As to A45C G80A, the self-cleavage amounted to 0.187.
Turning to C49G G54A, the self-cleavage stood at 0.332.
As for G31C A78G, the self-cleavage was determined as 0.302.
On to C22A A51G, for which the self-cleavage is 0.457.
As to U12A G55U, the self-cleavage was determined as 0.185.
As to G5C A43U, the self-cleavage is 0.0489.
For U20A C57A, the self-cleavage was found to be 0.0978.
For A56G U65G, the self-cleavage was found to be 0.957.
Take C18G U47C: the self-cleavage is 0.185.
With G28A A45G, the self-cleavage came out at 0.0415.
For G55C U79C, the self-cleavage came out at 0.513.
As for G40U A70G, the self-cleavage came to 0.528.
The figure for U20G C33G is 0.185.
Take U12G C64U: the self-cleavage was 0.914.
For the variant G1A C15A, the self-cleavage is 0.0923.
Regarding C22G C62U, the self-cleavage is 0.0346.
G80U G81U: the self-cleavage was 0.191.
The figure for C7A A83U is 0.0426; for G40U A42U it is 0.496.
For the variant C49G A51G, the self-cleavage was determined as 0.688.
On to C26G A43G, for which the self-cleavage came out at 0.437.
C24U G39U: the self-cleavage came out at 0.111.
For G6A C33U, the self-cleavage is 0.172.
On to C21A C48G, for which the self-cleavage worked out at 0.122.
On to C33A A70C, for which the self-cleavage was 0.17.
The figure for G50U U65G is 0.945; for G2U C26G it is 0.0627.
Consider C57U A71G, for which the self-cleavage is 1.12.
Regarding C24U G80C, the self-cleavage was found to be 0.179.
Turning to C63G U65A, the self-cleavage was 0.415.
C26U U27A: the self-cleavage came to 0.886.
For the variant C30G C86A, the self-cleavage is 0.241.
Turning to G34C C48A, the self-cleavage turned out to be 0.161.
Consider G52U C58G, for which the self-cleavage amounted to 0.95.
On to C66U G67A, for which the self-cleavage amounted to 0.786.
In the case of G29U U79A, the self-cleavage is 0.0386.
Turning to C7U G67A, the self-cleavage stood at 0.904.
As for A56U C61G, the self-cleavage came to 0.997.
In the case of C41U U60C, the self-cleavage was found to be 0.906.
Turning to G53A U65A, the self-cleavage came out at 0.884.
Turning to C4U A87G, the self-cleavage worked out at 0.599.
With A51G U60G, the self-cleavage was found to be 0.867.
For the variant G6A G38C, the self-cleavage turned out to be 0.
The figure for C26A G55C is 0.862.
For the variant G17C G29U, the self-cleavage stood at 0.
Turning to U47A G55C, the self-cleavage turned out to be 1.15.
In the case of C64U C66U it was 1.01; in that of C41U A70C, 0.803; in that of C41A C44G, 0.323.
As for C22A C62G, the self-cleavage was 0.212.
For the variant C7U C14U, the self-cleavage was determined as 0.785.
In the case of U20C G53C, the self-cleavage is 0.151.
Consider G25U C58U, for which the self-cleavage came out at 0.217.
In the case of C14A G53A it was 0.499; in that of A42U G67C, 0.415; in that of G11A U72G, 0.0923.
As for G11C A70G, the self-cleavage turned out to be 0.0692.
As to C3U A51C, the self-cleavage stood at 0.831.
The figure for C15A A16C is 0.415.
Regarding G38C C64U, the self-cleavage came out at 0.369.
For the variant A45U A71G, the self-cleavage was found to be 0.872.
